The source of these data is paper PMC6039445 (Nature Communications, 2018).

For test [1], the target named is HA of the Beijing 1989 strain (A/Beijing/353/1989 H3N2), soluble, biotinylated (Influenza A virus A/Beijing/353/1989 …, UniProt O11283, strain, biotin (site not stated)). As to the kind of experiment: BLI. Particulars: both partners purified.
For test [2], the target named is HA of the Shandong 1993 strain (A/Shandong/9/1993 H3N2), soluble, biotinylated (Influenza A virus A/Shandong/9/1993 …, UniProt H9XM74, strain, biotin (site not stated)). As to the kind of experiment: BLI. Particulars: both partners purified.

B1: H3v-47 Fab (Fab, V domains shown)
VH: QVQLVQSGAEVKKPGSSVRVSCKASGDTFSSYSITWVRQAPGHGLQWMGGIFPIFGSTNYAQKFDDRLTITTDDSSRTVYMELTSLRLEDTAVYYCARGASKVEPAAPAYSDAFDMWGQGTLVTVSS
VL: DIVMTQSPGTLSLSPGERATLSCRTSQGVSSSYLAWYQQKPGQAPRLLISGSSSRATGIPDRFSGSGSGRDFTLTISRLEPEDSAVYYCQQYATSPTFGQGTRVEIK
Consider B1, for which the binding result in test [1] and in test [2] was “binds” in each case.

B2: H3v-47 IgG (antibody, V domains shown)
VH: QVQLVQSGAEVKKPGSSVRVSCKASGDTFSSYSITWVRQAPGHGLQWMGGIFPIFGSTNYAQKFDDRLTITTDDSSRTVYMELTSLRLEDTAVYYCARGASKVEPAAPAYSDAFDMWGQGTLVTVSS
VL: DIVMTQSPGTLSLSPGERATLSCRTSQGVSSSYLAWYQQKPGQAPRLLISGSSSRATGIPDRFSGSGSGRDFTLTISRLEPEDSAVYYCQQYATSPTFGQGTRVEIK
notes: also called mAb H3v-47; source: human hybridoma cell line, serum-free medium, purified (protein G); copies: 2 + 2
Turning to B2, the binding result in test [1] and in test [2] was “binds” throughout.
